# B1: PSf42.1: anti-PSMA monoclonal antibody; light chain variable SEQ ID NO:45, heavy chain variable SEQ ID NO:46 (antibody, V domains shown)
# VH: EVQLEESGAEFVRPGAAVKLSCTVSGLNIKDSYLHWVKQRPEQGLEWIGGIDPANGDVEYDPKFQGKAAITADTSSNTAYLRLSSLTSEDTAVYYCAPFPYWGAGTTVTVS
# VL: DILMTQSPLTLSVIIGQPASFSCKSSHSLLHRDGRTYLNWLLQRPGQSPQRLIYLVSKLDSGVPDRFTGSGSGTDFTLKISRVEAEDLGVYYCWQGTHFPRTFGGGTKLEIKRA
# B2: PSf42.3: anti-PSMA monoclonal antibody; light chain variable SEQ ID NO:49, heavy chain variable SEQ ID NO:50 (antibody, V domains shown)
# VH: EVQLQQSGAELAKPGASVKLSCTGSGFNIKDTYMHWVKQRPEQGLEWIGGIDPETGNTKFDPRFQDKATITSDTSSNTVLLQLSSLTSEDTAVYYCANLGRPFAHWGQGTTVTVS
# VL: HSADPVSISCKSSQSLLHRDGKTYLNWVFQRPGQSPQRLIYLVSLVDSGVPDRFTGSGSGTDFTLKINRVEAEDLGVYYCWQGTHFPRTFGGGTKLEIKRA
# Test system: 22 different tumor types
# Assay: Immunohistochemistry on tissue microarrays of tumor types
# Conditions: Astrocytoma
# Procedure: (§1) Tissue and tumor specificity of mAbs: to compare the tissue and tumor specificity of monoclonal antibodies of the present invention, tissue microarrays of 30 different normal tissues (Biochain) and 22 different tumor types (Dako) including prostate cancer was used in order to characterize their recognition specificity. The immunohistochemistry was performed on antigen retrieved, formalin fixed, paraffin embedded material. Anti-PSMA mAbs J591 (ATCC HB-12126) and 7E11 (ATCC HB-10494) were used as references. Formalin fixed paraffin embedded […] sections were subjected to antigen retrieval in basic antigen retrieval solution (BD Pharmingen pH 9.5) in a microwavable pressure cooker for 10 min, cooled and equilibrated to 0.01M phosphate buffered saline (PBS) pH 7.4. Staining was carried out at room temperature in a humidified chamber. Endogenous peroxidases were inactivated with a 1% solution of H2O2 for 20 min, blocked with 5% normal goat serum (NGS) for 30 min and incubated with primary monoclonal antibodies (mAbs) diluted in PBS; 2% NGS overnight. Antibody binding to tissue sections was detected by the sequential addition of the following reagents followed by washing in PBS: goat anti-mouse IgG (H+L) (ICN) secondary antibody diluted 1:100 in PBS; 2% NGS for 1 hr, a complex of a bi-specific mAb mouse anti-peroxidase and horse radish peroxidase for 1 hr, and 3,3-diaminobenzidene tetrahydrochloride (DAB) at 0.6 mg/ml in PBS; 2% NGS; 0.01% H2O2 as chromogen. The primary antibodies were purified mAbs used at concentrations optimized in dilution experiments. […] Mouse IgG mAb was used at a concentration of 0.2 μg/ml and served as a negative control for the primary antibodies. Tissue samples included organ confined and metastatic prostate cancer, HGPIN and normal prostate tissues drawn from radical prostatectomies, transurethral resections and autopsy material.
row,Molecule,No. of positive cases/total no. of cases studied
1,B1,0/2
2,B2,0/2

# Same assay, conditions: Breast carcinoma
row,Molecule,No. of positive cases/total no. of cases studied
1,B1,0/2
2,B2,0/2

# Same assay, conditions: Carcinoid
row,Molecule,No. of positive cases/total no. of cases studied
1,B1,0/3
2,B2,0/3

# Same assay, conditions: Colonic adenocarcinoma
row,Molecule,No. of positive cases/total no. of cases studied
1,B1,0/2
2,B2,0/2

# Same assay, conditions: Epithelioid sarcoma
row,Molecule,No. of positive cases/total no. of cases studied
1,B1,0/1
2,B2,0/1

# Same assay, conditions: Ewing's sarcoma
row,Molecule,No. of positive cases/total no. of cases studied
1,B1,0/1
2,B2,0/1

# Same assay, conditions: Gastric carcinoma
row,Molecule,No. of positive cases/total no. of cases studied
1,B1,0/2
2,B2,0/2

# Same assay, conditions: Hepatocellular carcinoma
row,Molecule,No. of positive cases/total no. of cases studied
1,B1,0/2
2,B2,0/2

# Same assay, conditions: Hodgkin's lymphoma
row,Molecule,No. of positive cases/total no. of cases studied
1,B1,1/13
2,B2,2/13

# Same assay, conditions: Leiomyoma
row,Molecule,No. of positive cases/total no. of cases studied
1,B1,0/2
2,B2,0/2

# Same assay, conditions: Lung adeno carcinoma
row,Molecule,No. of positive cases/total no. of cases studied
1,B1,0/2
2,B2,0/2

# Same assay, conditions: Lymphoma
row,Molecule,No. of positive cases/total no. of cases studied
1,B1,0/3
2,B2,0/3

# Same assay, conditions: Malignant fibrous histiocytoma
row,Molecule,No. of positive cases/total no. of cases studied
1,B1,0/1
2,B2,0/1

# Same assay, conditions: Melanoma
row,Molecule,No. of positive cases/total no. of cases studied
1,B1,0/3
2,B2,2/4

# Same assay, conditions: Mesothelioma
row,Molecule,No. of positive cases/total no. of cases studied
1,B1,0/2
2,B2,0/2

# Same assay, conditions: Ovarian carcinoma
row,Molecule,No. of positive cases/total no. of cases studied
1,B1,0/2
2,B2,0/2

# Same assay, conditions: Pancreatic carcinoma
row,Molecule,No. of positive cases/total no. of cases studied
1,B1,0/2
2,B2,0/2

# Same assay, conditions: Prostatic carcinoma
row,Molecule,No. of positive cases/total no. of cases studied
1,B1,1/1
2,B2,1/1

# Same assay, conditions: Renal cell carcinoma
row,Molecule,No. of positive cases/total no. of cases studied
1,B1,0/2
2,B2,0/2

# Same assay, conditions: Rhabdosarcoma
row,Molecule,No. of positive cases/total no. of cases studied
1,B1,0/2
2,B2,2/2

# Same assay, conditions: Thyroid carcinoma
row,Molecule,No. of positive cases/total no. of cases studied
1,B1,0/2
2,B2,0/2

# Same assay, conditions: Undifferentiated carcinoma
row,Molecule,No. of positive cases/total no. of cases studied
1,B1,0/4
2,B2,0/4

# Test system: 30 different normal tissues
# Assay: Immunohistochemistry on tissue microarrays of normal tissues
# Conditions: Adipose
# Procedure: as §1
row,Molecule,No. of positive cases/total no. of cases studied
1,B1,0/2
2,B2,0/2

# Same assay, conditions: Bladder
row,Molecule,No. of positive cases/total no. of cases studied
1,B1,0/2
2,B2,0/2

# Same assay, conditions: Brain
row,Molecule,No. of positive cases/total no. of cases studied
1,B1,0/2
2,B2,0/2

# Same assay, conditions: Breast
row,Molecule,No. of positive cases/total no. of cases studied
1,B1,0/2
2,B2,0/2

# Same assay, conditions: Cerebullum
row,Molecule,No. of positive cases/total no. of cases studied
1,B1,0/2
2,B2,0/2

# Same assay, conditions: Cervix
row,Molecule,No. of positive cases/total no. of cases studied
1,B1,0/2
2,B2,0/2

# Same assay, conditions: Colon
row,Molecule,No. of positive cases/total no. of cases studied
1,B1,0/2
2,B2,0/2

# Same assay, conditions: Diaphragm
row,Molecule,No. of positive cases/total no. of cases studied
1,B1,2/2
2,B2,2/2

# Same assay, conditions: Duodenum
row,Molecule,No. of positive cases/total no. of cases studied
1,B1,0/2
2,B2,2/2

# Same assay, conditions: Esophagus
row,Molecule,No. of positive cases/total no. of cases studied
1,B1,0/2
2,B2,2/2

# Same assay, conditions: Gallbladder
row,Molecule,No. of positive cases/total no. of cases studied
1,B1,0/2
2,B2,0/2

# Same assay, conditions: Heart
row,Molecule,No. of positive cases/total no. of cases studied
1,B1,0/2
2,B2,0/2

# Same assay, conditions: Ileum
row,Molecule,No. of positive cases/total no. of cases studied
1,B1,0/2
2,B2,2/2

# Same assay, conditions: Jejenum
row,Molecule,No. of positive cases/total no. of cases studied
1,B1,0/2
2,B2,2/2

# Same assay, conditions: Kidney
row,Molecule,No. of positive cases/total no. of cases studied
1,B1,0/2
2,B2,2/2

# Same assay, conditions: Liver
row,Molecule,No. of positive cases/total no. of cases studied
1,B1,0/2
2,B2,0/2

# Same assay, conditions: Lung
row,Molecule,No. of positive cases/total no. of cases studied
1,B1,0/2
2,B2,0/2

# Same assay, conditions: Ovary
row,Molecule,No. of positive cases/total no. of cases studied
1,B1,0/2
2,B2,0/2

# Same assay, conditions: Pancreas
row,Molecule,No. of positive cases/total no. of cases studied
1,B1,0/2
2,B2,0/2

# Same assay, conditions: Placenta
row,Molecule,No. of positive cases/total no. of cases studied
1,B1,0/4
2,B2,1/4

# Same assay, conditions: Rectum
row,Molecule,No. of positive cases/total no. of cases studied
1,B1,0/2
2,B2,0/2

# Same assay, conditions: Skeletal muscle
row,Molecule,No. of positive cases/total no. of cases studied
1,B1,2/2
2,B2,2/2

# Same assay, conditions: Skin
row,Molecule,No. of positive cases/total no. of cases studied
1,B1,0/2
2,B2,0/2

# Same assay, conditions: Spleen
row,Molecule,No. of positive cases/total no. of cases studied
1,B1,0/2
2,B2,0/2

# Same assay, conditions: Stomach
row,Molecule,No. of positive cases/total no. of cases studied
1,B1,0/2
2,B2,0/2

# Same assay, conditions: Testis
row,Molecule,No. of positive cases/total no. of cases studied
1,B1,0/2
2,B2,0/2

# Same assay, conditions: Thymus
row,Molecule,No. of positive cases/total no. of cases studied
1,B1,0/2
2,B2,0/2

# Same assay, conditions: Thyroid
row,Molecule,No. of positive cases/total no. of cases studied
1,B1,0/2
2,B2,0/2

# Same assay, conditions: Tonsil
row,Molecule,No. of positive cases/total no. of cases studied
1,B1,0/2
2,B2,0/2

# Same assay, conditions: Uterus
row,Molecule,No. of positive cases/total no. of cases studied
1,B1,0/2
2,B2,0/2

# From patent US20110189093A1, “PROSTATE SPECIFIC MEMBRANE ANTIGEN ANTIBODIES AND ANTIGEN BINDING FRAGMENTS” (PROSCAN RX PHARMA, priority 2008, published 2011)
